According to US20240352433, “ENZYMES WITH HEPN DOMAINS” (Metagenomi, Inc., published 2024):
Changes are numbered by the printed parent chain.

Assays:
MG103-6 = molecular target: T1, MG103-6 (uncultivated organism); assay: crRNA processing by RNAseq: 6 nt trimmed from 5' of repeat, 30 nt repeat, 21 and 26 nt spacers
T1 chain: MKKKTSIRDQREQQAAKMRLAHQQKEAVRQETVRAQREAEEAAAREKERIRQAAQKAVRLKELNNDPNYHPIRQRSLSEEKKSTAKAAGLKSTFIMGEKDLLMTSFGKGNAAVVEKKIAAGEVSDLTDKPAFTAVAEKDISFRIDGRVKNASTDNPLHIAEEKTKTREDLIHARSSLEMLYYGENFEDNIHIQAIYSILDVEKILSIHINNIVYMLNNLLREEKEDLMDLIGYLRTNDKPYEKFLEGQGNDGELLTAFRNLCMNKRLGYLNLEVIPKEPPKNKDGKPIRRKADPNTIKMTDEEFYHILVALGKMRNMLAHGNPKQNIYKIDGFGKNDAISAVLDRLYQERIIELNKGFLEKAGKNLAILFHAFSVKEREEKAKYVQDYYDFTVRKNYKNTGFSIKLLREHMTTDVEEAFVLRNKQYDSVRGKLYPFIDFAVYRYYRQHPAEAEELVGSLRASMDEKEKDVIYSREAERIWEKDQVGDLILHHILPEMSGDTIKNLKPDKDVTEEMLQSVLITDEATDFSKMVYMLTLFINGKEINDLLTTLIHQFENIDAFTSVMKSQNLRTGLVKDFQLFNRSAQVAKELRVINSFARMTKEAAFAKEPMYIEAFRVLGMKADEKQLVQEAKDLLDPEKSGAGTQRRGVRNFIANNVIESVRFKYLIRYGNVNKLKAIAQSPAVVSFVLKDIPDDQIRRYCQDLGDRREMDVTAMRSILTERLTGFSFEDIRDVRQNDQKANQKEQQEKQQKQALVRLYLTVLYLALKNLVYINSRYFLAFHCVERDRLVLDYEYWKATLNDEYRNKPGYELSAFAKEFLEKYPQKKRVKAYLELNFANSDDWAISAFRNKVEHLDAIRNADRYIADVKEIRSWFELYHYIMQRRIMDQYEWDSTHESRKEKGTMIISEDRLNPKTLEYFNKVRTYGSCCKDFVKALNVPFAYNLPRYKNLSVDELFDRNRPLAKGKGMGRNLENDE
Experimental: (§1) RNA was extracted from PURExpress cell lysate expressions following the Quick-RNA™ Miniprep Kit (Zymo Research) and eluted in 30-50 μL of water. 5′ ends of the processed crRNA were mono-phosphorylated with 10 units of T4 Polynucleotide Kinase, 40 units of Murine RNase Inhibitor, and 1X of T4 DNA Ligase Buffer (NEB Inc.) in 25-50 μL reactions. Following a 30-minute incubation at 37° C., reactions were stopped with column purification using Monarch® RNA Cleanup Kit ([…]) (NEB Inc.). The total concentration of the transcripts were measured on a Nanodrop, Tapestation, and Qubit.
(§2) 100ng-1pg of total RNA from each sample were prepped for RNA sequencing using the NEBNext Small RNA Library Prep Set for Illumina (NEB Inc.). Amplicons between 150-300 bp were quantified by Tapestation and Qubit and pooled to a concentration of 4 nM. A concentration of […] was loaded into a MiSeq V3 kit and sequenced in a Miseq system (Illumina) for 176 total cycles. The RNAseq reads were used to identify the processed crRNA sequences. Illumina adapters were removed from all reads using fastp (see e.g., Bioinformatics 2018, 34 (17), i884-i890, which is incorporated by reference herein in its entirety). […]

MG103-12 = molecular target: T2, MG103-12 (uncultivated organism); assay: crRNA processing by RNAseq: 30 nt repeat, 21 nt spacer
T2 chain: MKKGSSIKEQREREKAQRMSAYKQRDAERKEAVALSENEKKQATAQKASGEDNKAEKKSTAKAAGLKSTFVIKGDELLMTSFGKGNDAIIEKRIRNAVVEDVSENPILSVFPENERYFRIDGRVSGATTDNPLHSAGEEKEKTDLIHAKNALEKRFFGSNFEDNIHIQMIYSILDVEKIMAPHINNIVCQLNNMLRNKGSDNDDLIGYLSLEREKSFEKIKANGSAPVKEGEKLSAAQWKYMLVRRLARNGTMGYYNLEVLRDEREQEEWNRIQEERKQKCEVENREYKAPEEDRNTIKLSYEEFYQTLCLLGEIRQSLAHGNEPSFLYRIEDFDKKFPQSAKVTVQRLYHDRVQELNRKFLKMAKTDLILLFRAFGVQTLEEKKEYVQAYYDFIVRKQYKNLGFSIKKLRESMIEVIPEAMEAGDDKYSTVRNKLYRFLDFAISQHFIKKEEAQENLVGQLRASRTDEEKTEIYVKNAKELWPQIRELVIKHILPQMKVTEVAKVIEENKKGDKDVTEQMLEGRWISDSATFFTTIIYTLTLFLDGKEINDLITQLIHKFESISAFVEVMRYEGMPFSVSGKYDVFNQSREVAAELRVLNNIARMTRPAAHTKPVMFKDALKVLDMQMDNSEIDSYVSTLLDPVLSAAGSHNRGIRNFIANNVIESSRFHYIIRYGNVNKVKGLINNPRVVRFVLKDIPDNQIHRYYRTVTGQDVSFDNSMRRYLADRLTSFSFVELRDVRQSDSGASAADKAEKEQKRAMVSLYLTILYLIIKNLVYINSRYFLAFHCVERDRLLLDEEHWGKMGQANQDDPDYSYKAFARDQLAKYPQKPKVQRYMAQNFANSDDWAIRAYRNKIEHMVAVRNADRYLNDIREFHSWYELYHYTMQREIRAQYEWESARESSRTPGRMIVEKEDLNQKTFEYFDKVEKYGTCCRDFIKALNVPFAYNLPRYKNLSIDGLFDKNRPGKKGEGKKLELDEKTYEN
Experimental: as §1, §2

MG105-1 = molecular target: T3, MG105-1 (uncultivated organism); assay: crRNA processing: 10 nt trimmed 5' of spacer, 36 nt repeat retained; spacer 5' of repeat
T3 chain: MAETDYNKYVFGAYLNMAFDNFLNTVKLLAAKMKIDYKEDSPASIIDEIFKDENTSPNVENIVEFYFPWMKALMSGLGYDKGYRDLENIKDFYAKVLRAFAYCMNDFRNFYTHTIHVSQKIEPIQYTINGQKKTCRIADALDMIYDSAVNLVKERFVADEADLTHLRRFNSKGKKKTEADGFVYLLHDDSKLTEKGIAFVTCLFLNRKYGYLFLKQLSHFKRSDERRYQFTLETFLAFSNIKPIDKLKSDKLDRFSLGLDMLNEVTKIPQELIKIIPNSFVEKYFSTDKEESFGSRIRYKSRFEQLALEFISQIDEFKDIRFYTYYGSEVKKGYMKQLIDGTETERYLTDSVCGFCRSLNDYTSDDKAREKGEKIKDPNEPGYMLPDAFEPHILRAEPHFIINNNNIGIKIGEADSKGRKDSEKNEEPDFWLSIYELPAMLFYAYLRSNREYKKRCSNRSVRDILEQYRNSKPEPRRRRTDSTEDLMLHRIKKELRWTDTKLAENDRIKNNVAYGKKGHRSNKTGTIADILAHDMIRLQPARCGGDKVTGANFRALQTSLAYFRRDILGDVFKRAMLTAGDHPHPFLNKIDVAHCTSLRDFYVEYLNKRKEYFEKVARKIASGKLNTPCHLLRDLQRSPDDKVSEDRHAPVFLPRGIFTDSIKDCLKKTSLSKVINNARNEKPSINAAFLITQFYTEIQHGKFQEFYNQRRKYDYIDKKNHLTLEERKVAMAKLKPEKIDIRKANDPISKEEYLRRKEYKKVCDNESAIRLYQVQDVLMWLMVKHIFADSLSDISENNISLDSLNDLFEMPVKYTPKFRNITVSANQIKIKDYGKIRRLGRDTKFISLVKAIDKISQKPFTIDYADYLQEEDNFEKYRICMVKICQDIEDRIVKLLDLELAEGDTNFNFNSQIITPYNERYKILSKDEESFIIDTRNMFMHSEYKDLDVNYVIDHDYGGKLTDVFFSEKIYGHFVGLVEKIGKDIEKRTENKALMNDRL
Experimental: as §1, §2

B1: 103-6_MA_30_REV array (ssRNA)
RNA: GGAACUACACCCUUACGAACUCGUAGGGGUCUGAAACCCGUCCAGCUCGACCAGGAUGGGAACAACGGAACUACACCCUUACGAACUCGUAGGGGUCUGAAACAGGCUAGGUGGAGGCUCAGUG
- binding result (MG103-6): binds

B2: 103-12_MA_30_FWD array (ssRNA)
RNA: B1 RNA with G17C, A18G, C20U, C22G, G26A, G83C, A84G, C86U, C88G, G92A
- binding result (MG103-12): binds

B3: 105-1_MA_30_REV array (ssRNA)
RNA: GGUUGUAACAGCCUUUAGUUUGUAAGGUAAAAACAACCCGUCCAGCUCGACCAGGAUGGGAACAACGGUUGUAACAGCCUUUAGUUUGUAAGGUAAAAACAACAGGCUAGGUGGAGGCUCAGUG
- binding result (MG105-1): binds
